Tests used:
[1] = target: C. reinhardtii axonemal tubulin purified from the combined cyc1-cyc5 fractions (CP/B tubulin) (C. reinhardtii); experiment: dynamic microtubule assay by interference reflection microscopy (IRM); label-free; tubulin at different concentrations in BRB80 with oxygen scavengers, 0.1 mg/ml casein, 1 mM dithiothreitol and 1 mM GTP, 28 °C; extensions grown from TAMRA-labeled GMPCPP-stabilized bovine brain MT seeds held on the coverslip by anti-TAMRA antibodies; constants from linear regression of growth rate against tubulin concentration; tubulin dimer onto the microtubule end
[2] = target: C. reinhardtii axonemal tubulin purified from the combined cyc1-cyc5 fractions (CP/B tubulin) (C. reinhardtii); experiment: dynamic microtubule assay by IRM with mean-squared displacement (MSD) analysis; MT ends tracked with FIESTA; quadratic fit to the first 15 s of MSD against time; estimated rate constants of tubulin dimer binding and unbinding at the growing end

C. reinhardtii axonemal tubulin purified from the combined cyc1-cyc5 fractions (CP/B tubulin) (complex)
koff, minus end [1]: 1.16 s⁻¹ | koff, plus end [1]: 0.785 s⁻¹ | kon, minus end [1]: 430000 M⁻¹ s⁻¹ | kon, plus end [1]: 540000 M⁻¹ s⁻¹ | x-intercept (extrapolated tubulin concentration for growth), minus end [1]: 2.58 µM | x-intercept (extrapolated tubulin concentration for growth), plus end [1]: 1.35 µM | koff, minus end (MSD analysis) [2]: 228 s⁻¹ | koff, plus end (MSD analysis) [2]: 341 s⁻¹ | kon, minus end (MSD analysis) [2]: 2.6e+07 M⁻¹ s⁻¹ | kon, plus end (MSD analysis) [2]: 3.86e+07 M⁻¹ s⁻¹ | kon[Tub], minus end (MSD analysis) [2]: 234 s⁻¹ | kon[Tub], plus end (MSD analysis) [2]: 348 s⁻¹

From article PMC6479064
